Assay results from article PMC9970974 (2023).

Key:
[1] = target: short version of the toxin domain (Ile323-the C-terminus) of MafB2_(MGI-2B16B6), no tag (N. meningitidis B16B6) (UniProt Q9JXD2); assay: ITC; Nano ITC, 20 °C, 10 mM Tris-HCl pH 8.0, 100 mM NaCl, 2 mM β-ME; 50 injections of 1 μl NmMafI2 (~1.3 mM) into NmMafB2-CT2 (~0.2 mM); independent binding sites model
[2] = target: T1, short version of the toxin domain (Ile323-the C-terminus) of MafB2_(MGI-2B16B6), no tag (N. meningitidis B16B6, UniProt Q9JXD2 323-483); assay: ITC
T1 chain: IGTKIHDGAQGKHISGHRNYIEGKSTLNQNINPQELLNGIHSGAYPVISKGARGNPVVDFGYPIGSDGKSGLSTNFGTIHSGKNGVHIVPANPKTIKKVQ

Molecule: MafI2_(MGI-2B16B6) with a C-terminal 6xHis-tag (from UniProt A0A0G4BSP3 1-139) (natural protein)
- Kd [1]: 0.04 µM
- stoichiometry N [1]: 1

B1: MafI2_(MGI-2B16B6) with a C-terminal 6xHis-tag (natural protein)
chain: MYKIKCFYDQFSSGELFNYCQFLDNSSNQKINTRGTVYQYIIYVLTGDLYLQKDIDENLEFIHQAENNPNEVYSGGGQGFCWDISAEKVVFYHNEFDEEDGWPDLSCSLHTFKTALIAWNAFLQLPKSIHSVVETVIEE
- Kd [2]: 0.0351 µM
